Data published in US20230398218A1, “RAS NEOANTIGENS AND USES THEREOF” (priority 2020, published 2023).

Assays:
Conditions in all cases: remark: other sources report otherwise
HLA-A02.01 (human) [1] = experiment: pMHC-I complex dissociation at 37 C, radiolabeled b2m
HLA-B07.02 (human) [2] = experiment: as above
HLA-A02.01 (human) [3] = experiment: competition with radiolabeled reference peptide on prepared MHC class I
HLA-B07.02 (human) [4] = experiment: as above
HLA-A01.01 (human) [5] = experiment: pMHC-I complex dissociation at 37 C, radiolabeled b2m
HLA-A01.01 (human) [6] = experiment: competition with radiolabeled reference peptide on prepared MHC class I
HLA-A24.02 (human) [7] = experiment: pMHC-I complex dissociation at 37 C, radiolabeled b2m
HLA-A24.02 (human) [8] = experiment: competition with radiolabeled reference peptide on prepared MHC class I

Row | Stability (half-life (hr.)) (HLA-A02.01 (human) [1]) | Stability (half-life (hr.)) (HLA-B07.02 (human) [2]) | Affinity (HLA-A02.01 (human) [3]) | Affinity (HLA-B07.02 (human) [4]) | Stability (half-life (hr.)) (HLA-A01.01 (human) [5]) | Affinity (HLA-A01.01 (human) [6]) | Stability (half-life (hr.)) (HLA-A24.02 (human) [7]) | Affinity (HLA-A24.02 (human) [8]) | Binder
1 | 183 min | 0 h | 67.7 nM | 866 nM | – | – | – | – | SLLNYLREM
2 | 0 min | 0 h | 1010 nM | – | – | – | – | – | MANGSLLNYL
3 | 0 min | – | 4000 nM | – | – | – | – | – | YMANGSLLN
4 | – | – | – | – | 6.22 min | 2.89 µM | – | – | LTSTVQLIM
5 | 0 min | – | 537 nM | – | 0 min | 8.28 µM | – | – | CLTSTVQLIM
6 | 22.9 min | – | 16.3 nM | – | – | – | 0 min | 18.9 µM | MQLMPFGCLL
7 | 22.1 min | 0 h | 116 nM | 1590 nM | – | – | – | – | MQLMPFGCL
8 | 20.4 min | – | 193 nM | – | – | – | 22.1 min | – | QLIMQLMPF
9 | 30.9 min | – | 653 nM | – | – | – | 0 min | 14.1 µM | IMQLMPFGCL
10 | 22.2 min | – | 1210 nM | – | – | – | – | – | IMQLMPFGC
11 | 0 min | – | 3340 nM | – | – | – | – | – | LIMQLMPFG
12 | 0 min | – | 4940 nM | – | – | – | 0 min | 4.1 µM | VQLIMQLMPF
13 | 0 min | – | 5210 nM | – | – | – | – | – | QLIMQLMPFG
14 | 0 min | – | 7260 nM | – | – | – | – | – | STVQLIMQL
